Measured values reported in patent publication US20220227830A1, “QD DOSING OF GIP RECEPTOR AGONIST PEPTIDE COMPOUNDS AND USES THEREOF” (Takeda Pharmaceutical Company Limited, priority 2020, published 2022).
Starred links: 1 amine or outer side, 2 acyl side, 3 side chain; linkers in the order of their positions; H or OH if unused. Non-standard residues stand in square brackets, D forms with d. Groups on a side chain read outwards from the residue. No end group written: not given here. *: point of attachment. C16 diacid = O=C(O)CCCCCCCCCCCCCCC(=O)*; C15 diacid = O=C(O)CCCCCCCCCCCCCC(=O)*; γGlu = O=C(O)[C@H](CCC(=O)[*:2])N[*:1]; NMeY = CN[C@@H](Cc1ccc(O)cc1)C(=O)O; AEEA = NCCOCCOCC(=O)O; Aib = CC(C)(N)C(=O)O

B1: Compound 93 (peptide)
peptide: [NMeY][Aib]EGTFISDYSIALDR[Aib]AQ[Aib]K([AEEA-AEEA-γGlu-γGlu-C15 diacid])FVNWLLAQSPSSGAPPPS-NH2
modifications: N-terminus assumed
SMILES: CC[C@H](C)[C@H](NC(=O)[C@H](CO)NC(=O)[C@H](Cc1ccc(O)cc1)NC(=O)[C@H](CC(=O)O)NC(=O)[C@H](CO)NC(=O)[C@@H](NC(=O)[C@H](Cc1ccccc1)NC(=O)[C@@H](NC(=O)CNC(=O)[C@H](CCC(=O)O)NC(=O)C(C)(C)NC(=O)[C@H](Cc1ccc(O)cc1)NC)[C@@H](C)O)[C@@H](C)CC)C(=O)N[C@@H](C)C(=O)N[C@@H](CC(C)C)C(=O)N[C@@H](CC(=O)O)C(=O)N[C@@H](CCCNC(=N)N)C(=O)NC(C)(C)C(=O)N[C@@H](C)C(=O)N[C@@H](CCC(N)=O)C(=O)NC(C)(C)C(=O)N[C@@H](CCCCNC(=O)COCCOCCNC(=O)COCCOCCNC(=O)CC[C@H](NC(=O)CC[C@H](NC(=O)CCCCCCCCCCCCCC(=O)O)C(=O)O)C(=O)O)C(=O)N[C@@H](Cc1ccccc1)C(=O)N[C@H](C(=O)N[C@@H](CC(N)=O)C(=O)N[C@@H](Cc1c[nH]c2ccccc12)C(=O)N[C@@H](CC(C)C)C(=O)N[C@@H](CC(C)C)C(=O)N[C@@H](C)C(=O)N[C@@H](CCC(N)=O)C(=O)N[C@@H](CO)C(=O)N1CCC[C@H]1C(=O)N[C@@H](CO)C(=O)N[C@@H](CO)C(=O)NCC(=O)N[C@@H](C)C(=O)N1CCC[C@H]1C(=O)N1CCC[C@H]1C(=O)N1CCC[C@H]1C(=O)N[C@@H](CO)C(N)=O)C(C)C
B2: Compound 88 (peptide)
peptide: [NMeY][Aib]EGTFISDYSIALDR[Aib]AQ[Aib]NFVNWLLAK([AEEA-AEEA-γGlu-γGlu-C15 diacid])RPSSGAPPPS-NH2
modifications: N-terminus assumed
SMILES: CC[C@H](C)[C@H](NC(=O)[C@H](CO)NC(=O)[C@H](Cc1ccc(O)cc1)NC(=O)[C@H](CC(=O)O)NC(=O)[C@H](CO)NC(=O)[C@@H](NC(=O)[C@H](Cc1ccccc1)NC(=O)[C@@H](NC(=O)CNC(=O)[C@H](CCC(=O)O)NC(=O)C(C)(C)NC(=O)[C@H](Cc1ccc(O)cc1)NC)[C@@H](C)O)[C@@H](C)CC)C(=O)N[C@@H](C)C(=O)N[C@@H](CC(C)C)C(=O)N[C@@H](CC(=O)O)C(=O)N[C@@H](CCCNC(=N)N)C(=O)NC(C)(C)C(=O)N[C@@H](C)C(=O)N[C@@H](CCC(N)=O)C(=O)NC(C)(C)C(=O)N[C@@H](CC(N)=O)C(=O)N[C@@H](Cc1ccccc1)C(=O)N[C@H](C(=O)N[C@@H](CC(N)=O)C(=O)N[C@@H](Cc1c[nH]c2ccccc12)C(=O)N[C@@H](CC(C)C)C(=O)N[C@@H](CC(C)C)C(=O)N[C@@H](C)C(=O)N[C@@H](CCCCNC(=O)COCCOCCNC(=O)COCCOCCNC(=O)CC[C@H](NC(=O)CC[C@H](NC(=O)CCCCCCCCCCCCCC(=O)O)C(=O)O)C(=O)O)C(=O)N[C@@H](CCCNC(=N)N)C(=O)N1CCC[C@H]1C(=O)N[C@@H](CO)C(=O)N[C@@H](CO)C(=O)NCC(=O)N[C@@H](C)C(=O)N1CCC[C@H]1C(=O)N1CCC[C@H]1C(=O)N1CCC[C@H]1C(=O)N[C@@H](CO)C(N)=O)C(C)C
B3: Compound 91 (peptide)
peptide: [NMeY][Aib]EGTFISDYSIALDR[Aib]AQ[Aib]NFVNWLLAQK([AEEA-AEEA-γGlu-γGlu-C15 diacid])-NH2
modifications: N-terminus assumed
SMILES: CC[C@H](C)[C@H](NC(=O)[C@H](CO)NC(=O)[C@H](Cc1ccc(O)cc1)NC(=O)[C@H](CC(=O)O)NC(=O)[C@H](CO)NC(=O)[C@@H](NC(=O)[C@H](Cc1ccccc1)NC(=O)[C@@H](NC(=O)CNC(=O)[C@H](CCC(=O)O)NC(=O)C(C)(C)NC(=O)[C@H](Cc1ccc(O)cc1)NC)[C@@H](C)O)[C@@H](C)CC)C(=O)N[C@@H](C)C(=O)N[C@@H](CC(C)C)C(=O)N[C@@H](CC(=O)O)C(=O)N[C@@H](CCCNC(=N)N)C(=O)NC(C)(C)C(=O)N[C@@H](C)C(=O)N[C@@H](CCC(N)=O)C(=O)NC(C)(C)C(=O)N[C@@H](CC(N)=O)C(=O)N[C@@H](Cc1ccccc1)C(=O)N[C@H](C(=O)N[C@@H](CC(N)=O)C(=O)N[C@@H](Cc1c[nH]c2ccccc12)C(=O)N[C@@H](CC(C)C)C(=O)N[C@@H](CC(C)C)C(=O)N[C@@H](C)C(=O)N[C@@H](CCC(N)=O)C(=O)N[C@@H](CCCCNC(=O)COCCOCCNC(=O)COCCOCCNC(=O)CC[C@H](NC(=O)CC[C@H](NC(=O)CCCCCCCCCCCCCC(=O)O)C(=O)O)C(=O)O)C(N)=O)C(C)C
B4: Compound 92 (peptide)
peptide: [NMeY][Aib]EGTFISDYSIALDR[Aib]AQ[Aib]K([AEEA-AEEA-γGlu-C15 diacid])FVNWLLAQSPSSGAPPPS-NH2
modifications: N-terminus assumed
SMILES: CC[C@H](C)[C@H](NC(=O)[C@H](CO)NC(=O)[C@H](Cc1ccc(O)cc1)NC(=O)[C@H](CC(=O)O)NC(=O)[C@H](CO)NC(=O)[C@@H](NC(=O)[C@H](Cc1ccccc1)NC(=O)[C@@H](NC(=O)CNC(=O)[C@H](CCC(=O)O)NC(=O)C(C)(C)NC(=O)[C@H](Cc1ccc(O)cc1)NC)[C@@H](C)O)[C@@H](C)CC)C(=O)N[C@@H](C)C(=O)N[C@@H](CC(C)C)C(=O)N[C@@H](CC(=O)O)C(=O)N[C@@H](CCCNC(=N)N)C(=O)NC(C)(C)C(=O)N[C@@H](C)C(=O)N[C@@H](CCC(N)=O)C(=O)NC(C)(C)C(=O)N[C@@H](CCCCNC(=O)COCCOCCNC(=O)COCCOCCNC(=O)CC[C@H](NC(=O)CCCCCCCCCCCCCC(=O)O)C(=O)O)C(=O)N[C@@H](Cc1ccccc1)C(=O)N[C@H](C(=O)N[C@@H](CC(N)=O)C(=O)N[C@@H](Cc1c[nH]c2ccccc12)C(=O)N[C@@H](CC(C)C)C(=O)N[C@@H](CC(C)C)C(=O)N[C@@H](C)C(=O)N[C@@H](CCC(N)=O)C(=O)N[C@@H](CO)C(=O)N1CCC[C@H]1C(=O)N[C@@H](CO)C(=O)N[C@@H](CO)C(=O)NCC(=O)N[C@@H](C)C(=O)N1CCC[C@H]1C(=O)N1CCC[C@H]1C(=O)N1CCC[C@H]1C(=O)N[C@@H](CO)C(N)=O)C(C)C

What follows are binders tested against full-length human GLP-1R with an N-terminal FLAG tag (human, UniProt P43220 24-463) (assay: cell-based or functional assay).

Binder | Human GLP1R cAMP HEK293T EC50 [nM]
B1 | 490
[NMeY][Aib]EGTFISDYSIALDRIK([AEEA-AEEA-γGlu-C16 diacid])Q[Aib]NFVNWLLAQK [Compound 8] | 100
[NMeY][Aib]EGTFISDYSIALDR[Aib]AQ[Aib]KFVNWLLAQS-NH2 (not fully specified (residue 21)) [Compound 85] | 63.1
B2 | 166
[NMeY][Aib]EGTFISDYSIAK([G5-γGlu-C15 diacid])DR[Aib]AQ[Aib]NFVNWLLAQSPSSGAPPPS-NH2 [Compound 82] | 295
[NMeY][Aib]EGTFISDYSIAK([G5-γGlu-γGlu-C15 diacid])DR[Aib]AQ[Aib]NFVNWLLAQSPSSGAPPPS-NH2 [Compound 81] | 1000
[NMeY][Aib]EGTFISDYSIAK([G5-γGlu-C15 diacid])DR[Aib]AQ[Aib]DFVNWLLAQRPSSGAPPPS-NH2 [Compound 80] | 468
B3 | 126
B4 | 74.1

Each binder was assayed against T1, full-length human GIPR with an N-terminal FLAG tag (human, UniProt P48546 22-466) (assay: cell-based or functional assay).
T1 sequence (looked up): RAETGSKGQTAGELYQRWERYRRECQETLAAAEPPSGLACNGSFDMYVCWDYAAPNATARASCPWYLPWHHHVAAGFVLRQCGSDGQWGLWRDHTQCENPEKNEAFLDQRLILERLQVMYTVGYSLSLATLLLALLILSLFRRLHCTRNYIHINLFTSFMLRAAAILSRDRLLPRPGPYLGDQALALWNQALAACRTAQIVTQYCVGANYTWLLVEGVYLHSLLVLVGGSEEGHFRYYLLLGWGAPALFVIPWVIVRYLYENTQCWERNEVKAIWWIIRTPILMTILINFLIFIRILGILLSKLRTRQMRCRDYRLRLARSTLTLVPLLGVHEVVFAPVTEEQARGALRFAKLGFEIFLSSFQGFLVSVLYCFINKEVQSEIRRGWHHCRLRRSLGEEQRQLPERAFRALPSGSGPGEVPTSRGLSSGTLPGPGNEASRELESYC

Binder | Human GIPR cAMP, HEK293T EC50 [nM]
B1 | 0.0002
[NMeY][Aib]EGTFISDYSIALDRIK([AEEA-AEEA-γGlu-C16 diacid])Q[Aib]NFVNWLLAQK [Compound 8] | 0.0001
[NMeY][Aib]EGTFISDYSIALDR[Aib]AQ[Aib]KFVNWLLAQS-NH2 (not fully specified (residue 21)) [Compound 85] | 0.0009
B2 | 0.0006
[NMeY][Aib]EGTFISDYSIAK([G5-γGlu-C15 diacid])DR[Aib]AQ[Aib]NFVNWLLAQSPSSGAPPPS-NH2 [Compound 82] | 0.0003
[NMeY][Aib]EGTFISDYSIAK([G5-γGlu-γGlu-C15 diacid])DR[Aib]AQ[Aib]NFVNWLLAQSPSSGAPPPS-NH2 [Compound 81] | 0.0002
[NMeY][Aib]EGTFISDYSIAK([G5-γGlu-C15 diacid])DR[Aib]AQ[Aib]DFVNWLLAQRPSSGAPPPS-NH2 [Compound 80] | 0.0004
B3 | 0.0008
B4 | 0.0013
